The target in this assay is HA-M2R-RLuc8 (M2 muscarinic receptor) (UniProt P08172). Kind of assay: FRET or BRET. (In general: In BRET a luciferase serves as donor, and the signal depends on an acceptor being close.)
UniProt P08172, sequence (P08172 whole entry): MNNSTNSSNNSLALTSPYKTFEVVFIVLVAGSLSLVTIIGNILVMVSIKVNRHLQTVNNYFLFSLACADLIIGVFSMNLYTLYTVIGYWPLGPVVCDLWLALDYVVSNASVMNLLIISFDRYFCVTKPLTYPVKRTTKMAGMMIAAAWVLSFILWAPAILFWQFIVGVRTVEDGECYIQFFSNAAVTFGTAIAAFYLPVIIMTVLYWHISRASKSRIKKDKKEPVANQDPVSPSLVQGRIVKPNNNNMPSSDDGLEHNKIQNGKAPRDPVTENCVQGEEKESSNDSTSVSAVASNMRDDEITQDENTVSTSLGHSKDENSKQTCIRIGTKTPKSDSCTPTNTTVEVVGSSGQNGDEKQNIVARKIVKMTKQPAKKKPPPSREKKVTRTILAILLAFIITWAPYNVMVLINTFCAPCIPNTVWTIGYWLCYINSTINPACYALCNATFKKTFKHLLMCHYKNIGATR

The substance “Venus-arrestin-3-Lys139Ile (on the Ala87Val base mutant) (natural protein)” yielded a fold increase of basal net BRET (against the A87V base mutant) greater than 3 fold.

For the origin of these results see article PMC5797668.
